The target in the assay is LtMCC α6β6 dodecamer (L. tarentolae (endogenous in L. tarentolae TATII/UC cells)). The assay can be described thus: filament lengths counted on cryoEM micrographs.

Values joined by “and” are separate entries in the source; they are usually repeats but may differ in a detail not shown here. Identical values can stand only once.

In the case of LtMCC α6β6 dodecamer (complex), the stoichiometry N was 4 and 6.

A word on the stoichiometry N: it is the number of molecules, sites or subunits per partner or assembly.
